Laboratory results taken from patent US20070271623A1 (UNIVERSITY OF COPENHAGEN, published 2007).

B5: MKS1 as bait (BD fusion), MKS1-BD (other)
chain: MKLLSSIEQACDICRLKKLKCSKEKPKCAKCLKNNWECRYSPKTKRSPLTRAHLTEVESRLERLEQLFLLIFPREDLDMILKMDSLQDIKALLTGLFVQDNVNKDAVTDRLASVETDMPLTLRQHRISATSSSEESSNKGQRQLTVSMDPSEYFAGGNPSDQQNQKRQLQICGPRPSPLSVHKDSHKIKKPPKHPAPPPNRDQPPPYIPREPVVIYAVSPKVVHATASEFMNVVQRLTGISSGVFLESGGGGDVSPAARLASTENASPRGGKEPAARDETVEINTAMEEAAEFGGYAPGILSPSPALLPTASTGIFSPMYHQGGMFSPAIPLGLFSPAGFMSPFRSPGFTSLVASPTFADFFSHIWDQD
notes: also called MKS1 bait; MAP Kinase Substrate 1

Experiments:
MPK4 as prey (AD fusion) = target: T1, MPK4 as prey (AD fusion) (Arabidopsis thaliana, UniProt Q39024 1-376, limits assumed); assay: yeast two-hybrid assay
T1 construct: Used in the directed two-hybrid assay with MKS1 as bait; also called MPK4 prey
T1 sequence (looked up): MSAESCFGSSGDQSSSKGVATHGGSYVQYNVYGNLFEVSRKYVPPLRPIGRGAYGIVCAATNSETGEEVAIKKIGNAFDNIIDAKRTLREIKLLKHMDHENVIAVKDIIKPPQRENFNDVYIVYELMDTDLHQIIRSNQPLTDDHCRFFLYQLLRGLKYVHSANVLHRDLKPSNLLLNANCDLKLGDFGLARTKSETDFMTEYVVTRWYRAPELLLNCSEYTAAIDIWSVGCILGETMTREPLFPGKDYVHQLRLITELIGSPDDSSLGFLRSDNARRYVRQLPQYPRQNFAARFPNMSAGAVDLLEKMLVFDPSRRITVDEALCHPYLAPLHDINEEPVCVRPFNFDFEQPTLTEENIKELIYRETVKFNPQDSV

[1] = target: B5; assay: directed yeast two-hybrid assay
Description: (§1) Yeast cells in the two hybrid screen were selected on the indicated nutrient depleted growth-media (-Histidine; -Leucine; -Adenine-Tryptophan) and assayed for β-galactosidase (β-gal) reporter gene activity.
(§2) To test the specificity of the MAP kinase interaction, the interaction of MKS1 with other plant MAP kinases was tested in the yeast two-hybrid assay.
(§3) The specificity of MKS1 interaction with WRKY transcription factors was examined in directed yeast two-hybrid assays with WRKY26 and WRKY29.

[2] = target: T2, MPK17 as prey (AD fusion) (UniProt Q84M93 1-486, limits assumed); assay: directed yeast two-hybrid assay
T2 sequence (looked up): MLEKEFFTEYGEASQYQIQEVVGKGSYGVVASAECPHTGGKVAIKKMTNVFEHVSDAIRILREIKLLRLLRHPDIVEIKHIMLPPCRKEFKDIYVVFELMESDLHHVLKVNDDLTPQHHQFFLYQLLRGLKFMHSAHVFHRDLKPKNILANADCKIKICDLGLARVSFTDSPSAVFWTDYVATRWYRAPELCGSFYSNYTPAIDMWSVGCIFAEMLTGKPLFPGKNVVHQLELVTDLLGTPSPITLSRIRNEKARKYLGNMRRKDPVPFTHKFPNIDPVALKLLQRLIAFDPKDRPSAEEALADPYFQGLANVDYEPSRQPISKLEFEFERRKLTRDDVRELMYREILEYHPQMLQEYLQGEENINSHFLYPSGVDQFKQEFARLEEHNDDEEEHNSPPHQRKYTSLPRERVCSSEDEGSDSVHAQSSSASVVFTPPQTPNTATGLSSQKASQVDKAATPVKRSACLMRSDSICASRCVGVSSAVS
Description: as §1, §2, §3

MPK6 as prey (AD fusion) = MPK6 as prey (AD fusion) (UniProt Q39026 1-395); assay: directed yeast two-hybrid assay
Description: as §1, §2, §3

MPK3 as prey (AD fusion) = target: T3, MPK3 as prey (AD fusion) (UniProt Q39023 1-370); assay: directed yeast two-hybrid assay
T3 sequence (looked up): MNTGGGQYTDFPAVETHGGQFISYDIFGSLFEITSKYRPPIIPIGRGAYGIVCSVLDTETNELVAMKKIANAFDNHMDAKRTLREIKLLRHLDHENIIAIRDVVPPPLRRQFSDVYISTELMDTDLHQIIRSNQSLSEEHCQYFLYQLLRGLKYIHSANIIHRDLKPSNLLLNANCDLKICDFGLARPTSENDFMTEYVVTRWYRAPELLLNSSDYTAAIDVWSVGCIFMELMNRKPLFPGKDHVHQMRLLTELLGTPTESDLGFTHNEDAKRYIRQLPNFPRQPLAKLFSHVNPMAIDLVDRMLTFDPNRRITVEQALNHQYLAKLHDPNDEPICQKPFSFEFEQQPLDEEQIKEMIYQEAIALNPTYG
Description: as §1, §2, §3

MPK4 as bait (BD fusion) = target: T4, MPK4 as bait (BD fusion) (Arabidopsis thaliana, UniProt P04386 1-147; Q39024 1-376); assay: directed yeast two-hybrid assay
T4 construct: also called MPK4 bait
Description: as §1, §2, §3

[3] = target: T5, WRKY33 as prey (AD fusion) (Arabidopsis thaliana, UniProt Q8S8P5 332-519, limits assumed); assay: yeast two-hybrid assay
T5 construct: The library hits were five different truncated WRKY33 proteins; also called W33; transcription factor WRKY33

[4] = target: T6, histidine-tagged C2-MKS1 truncation (amino acids 1-123)
T6 chain: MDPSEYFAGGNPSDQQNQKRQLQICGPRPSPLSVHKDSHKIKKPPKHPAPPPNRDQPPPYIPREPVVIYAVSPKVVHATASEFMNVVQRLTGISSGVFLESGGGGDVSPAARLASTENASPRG

[5] = target: T7, recombinant, full-length histidine-tagged MKS1
T7 chain: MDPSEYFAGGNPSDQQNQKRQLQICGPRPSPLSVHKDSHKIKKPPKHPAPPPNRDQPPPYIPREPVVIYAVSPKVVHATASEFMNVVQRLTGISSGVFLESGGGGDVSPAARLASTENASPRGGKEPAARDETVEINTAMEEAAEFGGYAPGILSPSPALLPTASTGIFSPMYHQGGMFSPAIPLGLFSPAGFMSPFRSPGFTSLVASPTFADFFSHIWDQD

[6] = target: T8, Pep22, synthetic peptide corresponding to amino acid residues 13-35 of MKS1
T8 chain: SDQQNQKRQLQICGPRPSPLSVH

[7] = target: T9, histidine-tagged C1-MKS1 truncation (amino acids 1-196)
T9 chain: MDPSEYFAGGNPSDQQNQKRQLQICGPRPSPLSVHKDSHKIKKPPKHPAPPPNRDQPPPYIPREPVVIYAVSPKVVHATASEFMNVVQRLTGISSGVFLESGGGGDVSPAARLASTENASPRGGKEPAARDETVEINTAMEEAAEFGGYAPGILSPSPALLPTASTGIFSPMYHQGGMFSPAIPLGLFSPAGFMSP

Flg22 peptide = target: T10, Flg22 peptide
T10 chain: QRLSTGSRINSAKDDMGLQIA

[8] = target: T11, histidine-tagged C3-MKS1 truncation (amino acids 1-73)
T11 chain: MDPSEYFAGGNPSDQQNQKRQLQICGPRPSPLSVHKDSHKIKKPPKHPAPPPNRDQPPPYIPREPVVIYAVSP

T5 sequence (Q8S8P5 332-519 limits assumed): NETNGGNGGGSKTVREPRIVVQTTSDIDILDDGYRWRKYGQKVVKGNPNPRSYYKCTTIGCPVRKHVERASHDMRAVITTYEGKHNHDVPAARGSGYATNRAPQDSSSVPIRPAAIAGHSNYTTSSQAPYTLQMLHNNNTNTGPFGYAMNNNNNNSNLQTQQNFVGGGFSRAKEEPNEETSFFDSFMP
Chain of MPK6 as prey (AD fusion) (Q39026 whole entry, the tested form may be a part): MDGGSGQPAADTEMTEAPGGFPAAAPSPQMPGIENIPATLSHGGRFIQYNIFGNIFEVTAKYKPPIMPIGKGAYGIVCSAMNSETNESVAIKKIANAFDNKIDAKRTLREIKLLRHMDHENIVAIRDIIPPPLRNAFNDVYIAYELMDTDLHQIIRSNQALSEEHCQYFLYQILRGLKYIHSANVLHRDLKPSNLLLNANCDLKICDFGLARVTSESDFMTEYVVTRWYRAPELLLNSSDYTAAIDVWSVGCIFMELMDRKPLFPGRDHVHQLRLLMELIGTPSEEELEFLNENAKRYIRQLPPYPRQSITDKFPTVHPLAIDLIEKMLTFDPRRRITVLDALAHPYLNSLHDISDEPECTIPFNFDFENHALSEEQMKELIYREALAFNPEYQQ

B1: N1-MKS1, N-terminal truncated form (amino acids 55-222), two-hybrid construct (other)
chain: DQPPPYIPREPVVIYAVSPKVVHATASEFMNVVQRLTGISSGVFLESGGGGDVSPAARLASTENASPRGGKEPAARDETVEINTAMEEAAEFGGYAPGILSPSPALLPTASTGIFSPMYHQGGMFSPAIPLGLFSPAGFMSPFRSPGFTSLVASPTFADFFSHIWDQD
notes: also called N-terminally deleted MKS1; not shown: GAL4 BD or AD fusion partner
- binding result (MPK4 as prey (AD fusion)): no binding

B2: C1-MKS1 truncation (amino acids 1-196), two-hybrid construct (other, not shown: large carriers)
chain: MDPSEYFAGGNPSDQQNQKRQLQICGPRPSPLSVHKDSHKIKKPPKHPAPPPNRDQPPPYIPREPVVIYAVSPKVVHATASEFMNVVQRLTGISSGVFLESGGGGDVSPAARLASTENASPRGGKEPAARDETVEINTAMEEAAEFGGYAPGILSPSPALLPTASTGIFSPMYHQGGMFSPAIPLGLFSPAGFMSP
- binding result (MPK4 as prey (AD fusion)): binds

B3: C2-MKS1 truncation (amino acids 1-123), two-hybrid construct (other, not shown: large carriers)
chain: MDPSEYFAGGNPSDQQNQKRQLQICGPRPSPLSVHKDSHKIKKPPKHPAPPPNRDQPPPYIPREPVVIYAVSPKVVHATASEFMNVVQRLTGISSGVFLESGGGGDVSPAARLASTENASPRG
- binding result (MPK4 as prey (AD fusion)): binds

B4: WRKY29 as prey (AD fusion) (other, UniProt Q9SUS1 1-304, looked up, not shown: large carriers)
chain: MDEGDLEAIVRGYSGSGDAFSGESSGTFSPSFCLPMETSSFYEPEMETSGLDELGELYKPFYPFSTQTILTSSVSLPEDSKPFRDDKKQRSHGCLLSNGSRADHIRISESKSKKSKKNQQKRVVEQVKEENLLSDAWAWRKYGQKPIKGSPYPRSYYRCSSSKGCLARKQVERNPQNPEKFTITYTNEHNHELPTRRNSLAGSTRAKTSQPKPTLTKKSEKEVVSSPTSNPMIPSADESSVAVQEMSVAETSTHQAAGAIEGRRLSNGLPSDLMSGSGTFPSFTGDFDELLNSQEFFSGYLWNY
notes: mature
- binding result [1]: no binding

Binder: B5
- binding result [2]: no binding
- binding result (MPK6 as prey (AD fusion)): no binding
- binding result (MPK3 as prey (AD fusion)): no binding

B6: MPK5 as prey (AD fusion) (other, UniProt Q39025 127-376, looked up, not shown: large carriers)
chain: MDTDLHQIIRSNQSLNDDHCQYFLYQILRGLKYIHSANVLHRDLKPSNLLLNSNCDLKITDFGLARTTSETEYMTEYVVTRWYRAPELLLNSSEYTSAIDVWSVGCIFAEIMTREPLFPGKDYVHQLKLITELIGSPDGASLEFLRSANARKYVKELPKFPRQNFSARFPSMNSTAIDLLEKMLVFDPVKRITVEEALCYPYLSALHDLNDEPVCSNHFSFHFEDPSSTEEEIKELVWLESVKFNPLPSI
- binding result [1]: no binding

B7: WRKY25 as prey (AD fusion) (other, Arabidopsis thaliana, UniProt O22921 1-393, looked up, not shown: large carriers)
chain: MSSTSFTDLLGSSGVDCYEDDEDLRVSGSSFGGYYPERTGSGLPKFKTAQPPPLPISQSSHNFTFSDYLDSPLLLSSSHSLISPTTGTFPLQGFNGTTNNHSDFPWQLQSQPSNASSALQETYGVQDHEKKQEMIPNEIATQNNNQSFGTERQIKIPAYMVSRNSNDGYGWRKYGQKQVKKSENPRSYFKCTYPDCVSKKIVETASDGQITEIIYKGGHNHPKPEFTKRPSQSSLPSSVNGRRLFNPASVVSEPHDQSENSSISFDYSDLEQKSFKSEYGEIDEEEEQPEMKRMKREGEDEGMSIEVSKGVKEPRVVVQTISDIDVLIDGFRWRKYGQKVVKGNTNPRSYYKCTFQGCGVKKQVERSAADERAVLTTYEGRHNHDIPTALRRS
notes: Library clone; also called transcription factor WRKY25
- binding result (MPK4 as bait (BD fusion)): no binding

B8: C3-MKS1 truncation (amino acids 1-73), two-hybrid construct (other, not shown: large carriers)
chain: MDPSEYFAGGNPSDQQNQKRQLQICGPRPSPLSVHKDSHKIKKPPKHPAPPPNRDQPPPYIPREPVVIYAVSP
- binding result (MPK4 as prey (AD fusion)): binds
- binding result [3]: no binding

B9: HA (influenza hemagglutin antigen)-tagged MPK4 (protein)
chain: YPYDVPDYAYPYDVPDYAYPYDVPDYAYPYDVPDYAYPYDVPDYAYPYDVPDYAMSAESCFGSSGDQSSSKGVATHGGSYVQYNVYGNLFEVSRKYVPPLRPIGRGAYGIVCAATNSETGEEVAIKKIGNAFDNIIDAKRTLREIKLLKHMDHENVIAVKDIIKPPQRENFNDVYIVYELMDTDLHQIIRSNQPLTDDHCRFFLYQLLRGLKYVHSANVLHRDLKPSNLLLNANCDLKLGDFGLARTKSETDFMTEYVVTRWYRAPELLLNCSEYTAAIDIWSVGCILGETMTREPLFPGKDYVHQLRLITELIGSPDDSSLGFLRSDNARRYVRQLPQYPRQNFAARFPNMSAGAVDLLEKMLVFDPSRRITVDEALCHPYLAPLHDINEEPVCVRPFNFDFEQPTLTEENIKELIYRETVKFNPQDSV
- in vitro phosphorylation assay (32P-γ-ATP, SDS-PAGE, phosphorimager) [4]: HA-tagged MPK4 readily phosphorylated both full-length and C-terminal MKS1 truncations, including C3 MKS1
- in vitro phosphorylation assay (32P-γ-ATP, SDS-PAGE, phosphorimager) [5]: HA-tagged MPK4, immunoprecipitated from Arabidopsis plants, is shown to in vitro phosphorylate MKS1 as efficiently as myelin basic protein
- competition of MKS1 phosphorylation by MPK4 in vitro [6]: Pep22 is an efficient competitor of full-length MKS1 for phosphorylation by MPK4, when added to the in vitro assay in a molar ratio of 1:1 (Pep22:MKS1)
- in vitro phosphorylation assay (32P-γ-ATP, SDS-PAGE, phosphorimager) [7]: HA-tagged MPK4 readily phosphorylated both full-length and C-terminal MKS1 truncations, including C3 MKS1
- competition of MKS1 phosphorylation by MPK4 in vitro (Flg22 peptide): the FIG. 22 peptide did not compete MKS1 phosphorylation
- in vitro phosphorylation assay (32P-γ-ATP, SDS-PAGE, phosphorimager) [8]: HA-tagged MPK4 readily phosphorylated both full-length and C-terminal MKS1 truncations, including C3 MKS1
